From a protein production outcome set (Wang et al. 2014) come the findings set out here.

A short description of the data set: label from the status in PepcDB records.
As to “MNIVIAVGILVTLVTGIPVLLQLLKGHPRGLIICFLAEMWERFSYYGMRAILIFYLTQHFLFDPKAASGHYGSYTALVYLVPLIGGFLADKWLGTRKAVAFGAVLLVAGHLAMAIEGKPAVQTLTYQGATYEFQAEGRGQNREAKLVVDGKAYEVAATKVGDFEIKGLPANAPLPAVLPKADYKLDVAGRDPLYLNIFWFSLSLIILGVGFLKPNISTIVGQLYPQGDPRRDPGFTLYYYGINLGSFWASILCGLLGVNVGWWAGFGLAGVGMLAGFIVFVLGKPWLDGKAEPPEPKVLKEKVAGPINRELAIYGLSLVGLVGIFFLVQFNAIVGVALNIGILASLGYIGFFMFTKCAKEERERLALAVFLIFGAVVFWTLFEQAGSSLSLFAATNVQLDLVREPLRLFSGAVTLATPDQLAKAGIDAASTFWVDTSFNAPQTQALNAGWILIFAPVFAAVWTFLGARGKDPNPVIKFGLALIQVGAGFLLLQWGSTFADGAFKLPLIFLVLMYMLHTTGELCMSPVGLSQMTKLSPASVVSFMMAVWFLAVAIAQWVGGKIAGLAATETVGGQVLDPGAALAASLKVFNIIGLVAVAIGIGFLLLSPVLKKWSHGADNVGAPKKA”, the protein production entry is listed as “failed”.

On to “MAESTIITGQFVRISQVPASLGERILARIIDYFLLFIYILATSYILGKLNIHAFSGSTFFLLFLFIYLPVLCYSLLCEVFNQGQSAGKKLMNIRVVKADGTTPSLSAYLLRWLLYGIDVTITGGLGVLVILLTKNSQRLGDLAAGTMVIKEKNYRKIQVSLDEFDYLTKGYHPSFPSAADLSLEQINVISKALELHHKDRTRHIAQLAPKVRALLSVDQTNINDEKFLQTVVRDYQYYALEEI”, for which the protein production result was “failed”.

Turning to “MNLYFRLFWLLFWRTRHCRKIDFLGTSRITYRALPSDCDINFHLTNSRYPAFMDLARTYMLAEMGLLKRFLKLKWMPIVNAAEFTYIRDIKPLKKFEIETKVVGWDEKYFYIEQRFISERGLHCIVHVRGVFVCKGKQIPLEVLVKEAGYTAPAPELPPEVVKWKAFLQLKKERNL”, the protein production entry is “failed”.

For “EQVQRFGDLDVHYNVFNSSFLQPNVASAVGLVRSKAQGVINVVPMEKGKPVEAAVTGSAKDLTGKVIPLEFRRVSEEGAIYNLAQFPISQRETLVFTIKVEAKGEPAQTFSFNKEIFPDE”, the protein production entry is reported as “not failed”.

For the sequence “MCRKRYKKQNLGVSKNMLEGHENKVSGVYEKNRSAGYEKEILKPKNVWEEFFADKRSGGHRSSAEEFLAMEAKEKLFHLDGGKILLDFGCGAGELLVYYAQEYEKTIGVDFSPSMLEEASKRIRERNCKNTTLILADDKIVWDKLDSSFDRITAAGVFQYLTYQKIDDFIFNASKHLNEGGKIVLFDMLDPRLYPLWKMGLFSQDKSCRKILSKAVCGVKNSISASLKRRPRDILGYSHYPNKIKKIANKNGFEMICVQSMYYEYKYHAIIFRS”, the protein production result is listed as “failed”.

Turning to “IDLAHPDLALHLHLNRGGAVLSLDGSGVSLHRRGYRAAMGAAPLKENLAAGLIQLTGWDGRMPLVDPFCGSGILLIEAVTMALQQAPGLGRQFGLEGWADFDRELWEREHARARQRRRSDLDLAPVVGYEQDPLIADQARDNIRAAGLDGLISIHSGSFEQQTLPPGPGLLVCNPPYGHRVGSEDDLEQLYRLLGSFVREQASGWQLWLLSGNASLTGALRLKASRRIPVSNGGIDCRWLNYGIR”, the protein production result was “failed”.

Turning to “MADTVEEPQLQNGAAPAESETEQNPIPEPQLQTEPKLTGEIPEIEADLTPEEVQSEVTDAKPEEVQSEVKPEEVKTVVTDAKPEEAQSEVKPEEVQSVVTDTKPDLTDVDLSPGGSEEIPIRSTEVEQESTTSVLKKDDDGNKTFTMRELLSELKSEEGDGTPHSSASPFSRESASQPAENNPAMDLINRIQVNDEEGRSRQRVLAFAARKYASAIERNPDDHDALYNWALILQESADNVSPDSVSPSKDDLLEEACKKYDEATRLCPTLYDAYYNWAIAISDRAKIRGRTKEAEELWEQAADNYEKAVQLNWNSSQALNNWGLVLQELSQIVPAREKEKVVRTAISKFRAAIRLQFDFHRAIYNLGTVLYGLAEDTLRTGGSGNGKDMPPGELYSQSAIYIAAAHSLKPSYSVYSSALRLVRSMLPLPHLKVGYLTAPPVGNSLAPHSDWKRTEFELNHERLLQVLKPEPREMGRNLSGKAETMSTNVERKTVKVNITEIVSVTPCADLTLPPGAGLCIDTIHGPVFLVADSWESLDGWLDAIRLVYTIYARGKSDVLAGIITG”, the protein production entry was “failed”.

“VPLEARMKQFKDMLLERGVSAFSTWEKELHKIVFDPRYLLLNPKERKQVFDQYV”: the protein production entry was “failed”.

For “MLKTSALAPCGKPMLIWPSQTSARRHGFSEASYCLWRSKFGGMSMPDAKRLKDLEAENTRLKKLLAEQVFQNDLIKDALQKMVSAPARRALVREWIAGGASERCALAAIGMSASALRYRPREDRNVELRERILALAHRHRRYGVGMISLKLRQEGRLVNYKRVERLYCEQQLQVRRRKRKKVPLGERAPLLRPTKANPVWSMDVVFDRTAEGRAIKCLVIVDDATHEAVAIDVERAISGHGVVRVLDRLAHSRGLPKMIRTDNGKEFCGKAMVAWAHANRVQLRQIQPGKPNQNAYVESFNGRLRDECLNKHGFPTLLHARTEIERWRREYNEHRPKKTIGGMTPAAYAQQLANSDIINPGL”, the protein production result is on record as “failed”.

For the sequence “MRVGALDVGEARIGLAVGEEGVPLASGRGYLVRKTLEEDVEALLDFVRREGLGKLVVGLPLRTDLKESAQAGKVLPLVEALRARGVEVELWDERFTTKLAQERLKHAPKRLRRDKGKLDELAAVVLLEDYLARGI”, the protein production result is “not failed”.

With “MPQPRRSTGSKLTYRPVGYVNAMSEQDEVPSEDRRKYEFRKVIEELKDYEGSGTQLVTIYIPPDKQISDVVAHVTQEHSEASNIKSKQTRTNVQDALTSIKDRLRYYDTFPPDNGMVVFSGAVDSGGGRTDMVTEVLESPPQPIESFRYHCDSAFLTEPLAEMLGDKGLYGLIVLDRRESNVGWLKGKRVQPVKSAESLVPGKQRKGGQSAQRFARLRLEAIDNFYQEVAGMADDLFVPKRHEIDGILVGGPSPTKDEFLDGDYLHHELQDKVLGKFDVSYTDESGLSDLVDAGQAALAEADLMDDKSDMEEFFEELNGGKLATYGFEQTRRNLIMGSVDRLLVSEDLREDVVIYECPNDHEEYETIDRRNTSPEHTCSDCGEEATEVDREDAIDHLMSIADQRGTETHFISTDFEKGEQLLTAFGGYAGILRYSTGV”, the protein production result is “failed”.

For “RLRQPMLRTGDQWQPIEWQAAFDLVAERLYAIQQQHGQNAVAVYQGNPSVHNYGLMTHSNYFLGLLKTRNRFSATSVDQLPHHLTSFLMYGHGMLLPIPDIDHTDFMLILGGNPLASNGSIMTVPDVEKRLKAIQQRGGKLVVVDPRRSETAAIADQHVFVRPGGDAALLFGLLNTLFEEGLTRESHLPVDGLDHVRHSIAGFSAEAMSPRCGIAAVQIRQLARDFAGADTALCYGRMGVSTQAFGTLCHWLAQLINLVTGNLDRVGGTLCTEPAVDLVSSTSGGHFNVWQSRVSGLPEYGGELPVSALAEEMLVEGQGQVRALVTVAGNPVLSTPNGRQLDQALEGLEFMLSIDLYINETTRHADLILPSTSALENDHYDTTFNTLAVRNVTRFNRAIFDKPEGALHDWEIFVGLAASFAAKAQRELKPTVPPAQMIDRVLRAGRYGAASPHNLSLETLASHPHGMDLGALKPNLTDRLKTANGRIQAAP”, the protein production result is “failed”.

As for “MKKILVLGGAHIDRRGMIETETAPGASNPGSWMEEAGGGGFNAARNLSRLGFEVRIIAPRGGDVTGEVVAEAARQAGVEDTPFTFLDRRTPSYTAILERDGNLVIALADMDLYKLFTPRRLKVRAVREAIIASDFLLCDANLPEDTLTALGLIARACEKPLAAIAISPAKAVKLKAALGDIDILFMNEAEARALTGETAENVRDWPNILRKAGLSGGVVTRGASEVVAFNGTEKAILHPPLIREVKDVTGAGDAMASGYLAAIAEGKTIREALRQGAAAAAITVQSSFATSQDLSKDSVEAMLGLVPQAEMLA”, the protein production result is given as “not failed”.

As to “MKITILSGGTGTPKLIQGFKEILPNEDISVIVNTGEDTYIGDIYLSPDIDTVLYTFSNLINDETWYGLKGDTFFCHEQLKNFGFDEVLRIGDKDRALKMHKTSLLKKGVPMSEIVDIERKSLSINSKIYPMSDEKIESKVLIEENNEKILLKFHDFWVSRRGNAKVLDIFYENSNYAKAADGVLKAIEESDFVIIGPSNPITSIGPILSISEIKDALKEKLVFAVSPIVGENPVSGPAGTLMHAKGYPVNAVGVYEYYKDIVDVLVLDNSDINKKKEMNCEVLYANTIMKTIDDKITLARNILDYYKSR”, the protein production result is given as “failed”.

As for “SDSTAGTDAVAVGGTFQFHSPDGKMEIFYDEADRQQLPDIGGDSLMEEGTQINLSDFENQVVILNAWGQWCAPCRSESDDLQIIHEELQAAGNGDTPGGTVLGINVRDYSRDIAQDFVTDNGLDYPSIYDPPFMTAASLGGVPASVIPTTIVLDKQHRPAAVFLREVTSKDVLDVALPLVDEA”, the protein production entry is recorded as “not failed”.

With “MKPQVYHVDAFTSQPFRGNSAGVVFPADNLSEAQMQLIARELGHSETAFLLHSDDSDVRIRYFTPTVEVPICGHATVAAHYVRAKVLGLGNCTIWQTSLAGKHRVTIEKHNDDYRISLEQGTPGFEPPLEGETRAAIINALHLTEDDILPGLPIQVATTGHSKVMIPLKPEVDIDALSPDLNALTAISKKIGCNGFFPFQIRPGKNETDGRMFSPAIGIVEDPVTGNANGPMGAWLVHHNVLPHDGNVLRVKGHQGRALGRDGMIEVTVTIRDNQPEKVTISGTAVILFHAEWAIEL”, the protein production entry is recorded as “not failed”.

Consider “KGKIQEADNAAKLSAIKFVLKDPLTGDYLVDEKEIEEIVKKTGIETVVLKEYKEGVVLGPLYEFVTKDGRNAYVLSGYAPGFGGNVTVVACFIKTEDGFMLNSVRVIDYSQETPGLGAKIGEESIQRRFFPVPPEGLKNGLRVDKDAGLPKGSPEELKKQGIVKVSDVMTGATITPRAVVTALNLMYRYLEEVSK”, for which the protein production result is recorded as “not failed”.

Take “METLLIQQTEKSNKFWKIVVKEKDYVVFYGKIGTAGSVKAKEFETEEECMNEANKLVASKRKKGYIDPLPGEDYIKEKTITEEEFWELLHRAKTKGEDQEEQIEWLTSHLAKRTVHEIVAFDTHMHSLLKDSYTSRLWAAAYIIMGGCSDDTFDYFRGWLLYQGKETYEACIEDPERLIPVLENLSEYDVPEIEELSLYFGFTVYAEKTGDEDDTYFTLYHVLSNEEFDDVDFEFDWNEDDEEGLKKVFPRLWEMYGEEPIEWLEHHHHHH”: the protein production entry is recorded as “not failed”.

For “HCSADLVLVEPTPLAVLDRIALVTDNGPFDPRKVELANGLAAAAGASLVLGHAVPADATEDQRATVRTYHEDLMGLCTVPVESNIVGTTTPAAMARAVSAADLVVVESDAAWWARLLDNREPQRIAGAFGGPAIVVRPQQAEGPSPVRRLLERVAF”, the protein production result was “failed”.

With “TDDEEKDNNGQGSVSVETNYLPIADPYVMFYNNKYYAYGTGGTTAGEGFACFSSDDLKNWKREGQALSATDSYGTWGFWAPEVYYVESKKKFYLFYSAEEHICVATSTTPEGPFRQEVKQPIWSEKSIDTSLFIDDDGTPYLYFVRFTDGNVIWVAQMTDDLMSIKTETLNQCIKAEVSWELLQGKVAEGPSLLKKNGVYYLIYSANHYENKGYGVGYATSDTPMGPWVKYSKNPLLQGDAATGLVGTGHGAPFQCKDGSWKYIFHAHWSAAEIQPRTSYIKDFAISDQGVVTISGTVIKPRVLK”, the protein production result is “not failed”.

As to “KSPVREPVDNLSPEERDARTVFCMQLAARIRPRDLEDFFSAVGKVRDVRIISDRNSRRSKGIAYVEFCEIQSVPLAIGLTGQRLLGVPIIVQASQAEKNRL”, the protein production result is listed as “not failed”.

Take “MKRSILNTLLNVLAIIFIVFLMIKVSVPMGSILLLSFIIFKLTINKHLIYMFKGAKKLRANNLEEALSLYRKAALCNSSNVKAIKTYVFLELKIGSYTEALETLKSIVSKRKFLPEDANQLDLLQAILYWKLNDIKTSLQILDDLKANNFNSLDFYEVYGYVLIQDEDFEKAISISNEGLKVDELSQIIRANLGEIFYKIGDIKKACFYFDELIDECVNFSEPYYFMGIISKEKEDFYKAKEFLNKALKYDESILSNLSKNDIENALISINH”: the protein production entry is on record as “failed”.
